2 molecules from PMC7459580, “Molecular Basis for Endocrine Disruption by Pesticides Targeting Aromatase and Estrogen Receptor” (International Journal of Environmental Research and Public …, 2020) can be followed below.

The target in one series is T1, aromatase (Aro) (Homo sapiens, UniProt P11511).
T1 construct: gene CYP19A1; recombinant human aromatase; with human cytochrome P450 reductase (hCPR), electron donor
Nature of the series: estrone competitive ELISA with purified aromatase and CPR. It is filed as biochemical. As to conditions: read-out: % residual activity at 1000 nM. In general terms: ELISA stands for enzyme-linked immunosorbent assay.

Series [1] concerns C[C@]12CCC(=O)C=C1CC[C@@H]1[C@@H]2CC[C@]2(C)C(=O)CC[C@@H]12. Nature of the series: purified protein. Particulars: heme; NADPH active site.

T1 sequence (P11511 whole entry): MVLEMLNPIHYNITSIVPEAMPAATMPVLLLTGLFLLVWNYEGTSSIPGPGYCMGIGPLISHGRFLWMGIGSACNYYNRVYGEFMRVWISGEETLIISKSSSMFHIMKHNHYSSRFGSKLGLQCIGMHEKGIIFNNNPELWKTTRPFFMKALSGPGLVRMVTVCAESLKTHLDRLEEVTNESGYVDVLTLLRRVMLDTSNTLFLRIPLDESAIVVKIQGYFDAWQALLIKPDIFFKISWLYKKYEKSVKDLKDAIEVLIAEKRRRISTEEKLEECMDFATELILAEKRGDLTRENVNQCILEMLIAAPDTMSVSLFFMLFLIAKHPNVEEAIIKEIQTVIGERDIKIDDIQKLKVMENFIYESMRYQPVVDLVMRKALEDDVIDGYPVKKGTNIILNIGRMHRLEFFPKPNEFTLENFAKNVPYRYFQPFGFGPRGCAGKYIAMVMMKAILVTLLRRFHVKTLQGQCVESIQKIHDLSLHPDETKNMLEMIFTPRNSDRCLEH
T1 sequence (P16435 2-677, further chain): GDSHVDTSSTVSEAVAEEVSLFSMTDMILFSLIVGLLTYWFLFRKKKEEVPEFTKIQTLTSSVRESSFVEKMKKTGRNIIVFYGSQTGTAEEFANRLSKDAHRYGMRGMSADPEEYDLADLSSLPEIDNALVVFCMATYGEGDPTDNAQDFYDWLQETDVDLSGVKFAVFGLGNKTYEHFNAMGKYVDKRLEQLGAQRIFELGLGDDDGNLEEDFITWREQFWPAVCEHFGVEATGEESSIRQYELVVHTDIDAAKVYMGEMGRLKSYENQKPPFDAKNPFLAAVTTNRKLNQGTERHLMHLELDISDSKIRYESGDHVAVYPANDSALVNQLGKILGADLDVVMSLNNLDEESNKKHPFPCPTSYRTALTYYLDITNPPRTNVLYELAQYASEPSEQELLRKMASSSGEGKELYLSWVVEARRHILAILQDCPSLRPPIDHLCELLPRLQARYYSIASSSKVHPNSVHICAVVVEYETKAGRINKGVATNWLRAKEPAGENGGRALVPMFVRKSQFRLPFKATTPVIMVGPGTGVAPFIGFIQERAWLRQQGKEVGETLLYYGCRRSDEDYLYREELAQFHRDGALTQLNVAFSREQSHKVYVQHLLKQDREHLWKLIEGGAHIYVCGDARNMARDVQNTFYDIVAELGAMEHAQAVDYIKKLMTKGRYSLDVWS

`CC(C)(C#N)c1cc(Cn2cncn2)cc(C(C)(C)C#N)c1` [anastrozole]: the remaining activity at 1 µM on aromatase (Aro) is 0.7%.

For the molecule aromatase (Aro) (Homo sapiens), in series [1], the Km (commonly the substrate concentration at which the rate is half of its maximum) is 0.0413 ± 0.0082 µM and the kcat (commonly the maximal rate divided by the concentration of active sites) was found to be 0.0003 ± 1.67e-05 s⁻¹.
